T1: TMEM 27 A FRET peptide RINNAFFLND
T1 sequence: RINNAFFLND

T2: MR121 peptide C QTLEFLKIP W
T2 sequence: QTLEFLKIP

T3: Amylin FRET peptide GSNTYGKRNA
T3 sequence: GSNTYGKRNA

T4: MR121 peptide C QELEFLKI W
T4 sequence: QELEFLKI

T5: APP SW FRET peptide SEVNLDAEFR
T5 sequence: SEVNLDAEFR

T6: APP WT FRET peptide SEVKMDAEFR
T6 sequence: SEVKMDAEFR

T7: MR121 peptide C QTLEFLKI W
T7 sequence: QTLEFLKI

T8: MR121 peptide C QTLEFLKIPS W
T8 sequence: QTLEFLKIPS

B1: BACE1 (protein)
chain: TQHGIRLPLRSGLGGAPLGLRLPRETDEEPEEPGRRGSFVEMVDNLRGKSGQGYYVEMTVGSPPQTLNILVDTGSSNFAVGAAPHPFLHRYYQRQLSSTYRDLRKGVYVPYTQGKWEGELGTDLVSIPHGPNVTVRANIAAITESDKFFINGSNWEGILGLAYAEIARPDDSLEPFFDSLVKQTHVPNLFSLQLCGAGFPLNQSEVLASVGGSMIIGGIDHSLYTGSLWYTPIRREWYYEVIIVRVEINGQDLKMDCKEYNYDKSIVDSGTTNLRLPKKVFEAAVKSIKAASSTEKFPDGFWLGEQLVCWQAGTTPWNIFPVISLYLMGEVTNQSFRITILPQQYLRPVEDVATSQDDCYKFAISQSSTGTVMGAVIMEGFYVVFDRARKRIGFAVSACHVHDEFRTAAVEGPFVTLDMEDCGYNIPQTDESTLMTIAY
B2: BACE2 enzyme ectodomain (enzyme)
chain: AAPELAPAPFTLPLRVAAATNRVVAPTPGPGTPAERHADGLALALEPALASPAGAANFLAMVDNLQGDSGRGYYLEMLIGTPPQKLQILVDTGSSNFAVAGTPHSYIDTYFDTERSSTYRSKGFDVTVKYTQGSWTGFVGEDLVTIPKGFNTSFLVNIATIFESENFFLPGIKWNGILGLAYATLAKPSSSLETFFDSLVTQANIPNVFSMQMCGAGLPVAGSGTNGGSLVLGGIEPSLYKGDIWYTPIKEEWYYQIEILKLEIGGQSLNLDCREYNADKAIVDSGTTLLRLPQKVFDAVVEAVARASLIPEFSDGFWTGSQLACWTNSETPWSYFPKISIYLRDENSSRSFRITILPQLYIQPMMGAGLNYECYRFGISPSTNALVIGATVMEGFYVIFDRAQKRVGFAASPCAEIAGAAVSEISGPFSTEDVASNCVPAQSLSE
modifications: N-terminal Met

What was measured:
[1] = molecular target: dabsyl-…-LucY (TMEM27 FRET peptide)
[2] = test system: dabsyl-NSLEFLGIQP-lucifer yellow (ACE2 FRET peptide)
[3] = test system: MR121 peptide C TLEFLKI W
[4] = test system: T1, TMEM 27 A FRET peptide RINNAFFLND
[5] = test system: T2, MR121 peptide C QTLEFLKIP W
[6] = test system: T3, Amylin FRET peptide GSNTYGKRNA
[7] = test system: MR121 peptide C QTLEFLK W
[8] = test system: T4, MR121 peptide C QELEFLKI W
[9] = test system: T5, APP SW FRET peptide SEVNLDAEFR
[10] = test system: T6, APP WT FRET peptide SEVKMDAEFR
[11] = test system: dabsyl-QTLEFLKIPS-LucY (TMEM27 FRET peptide)
[12] = test system: T7, MR121 peptide C QTLEFLKI W
[13] = test system: T8, MR121 peptide C QTLEFLKIPS W

| Protein | FRET peptide cleavage activity [1] | FRET peptide cleavage efficiency [2] | Relative activity [3] | FRET peptide cleavage efficiency [4] | Relative activity [5] | FRET peptide cleavage efficiency [6] | Relative activity (MR121 peptide C QTLEF W) | Relative activity (MR121 peptide C LEFLKI W) | Relative activity [7] | Relative activity [8] | Relative activity (MR121 peptide C QTLEFL W) | FRET peptide cleavage efficiency [9] | FRET peptide cleavage efficiency [10] | FRET peptide cleavage activity [11] | Relative activity [12] | Relative activity [13] |
| --- | --- | --- | --- | --- | --- | --- | --- | --- | --- | --- | --- | --- | --- | --- | --- | --- |
| B1 | BACE1 had insignificant activity against this peptide | – | – | – | – | – | – | – | – | – | – | – | – | – | – | – |
| B2 | – | cleaved by BACE2 with an efficiency greater than that of the TMEM27 substrate | 28 | cleaved less efficiently | 75 | cleaved less efficiently | 21 | 24 | 62 | 100 | 32 | cleaved less efficiently | cleaved less efficiently | BACE2 had a high activity against this sequence | 96 | 91 |

— US20110229922
